Laboratory results: EP0311107A2, “Anti-HIV active 3'-fluoro-purine-2',3'-dideoxyribosides” (priority 1987, dated 1989)

Legend:
[1] = substrate: Nc1nc(N)c2ncn([C@H]3C[C@@H](O)[C@@H](CO)O3)c2n1; assay: Substrate kinetics for deamination by adenosine deaminase; format: biochemical; conditions: other: beef intestine adenosine deaminase
Text: (§1) All four ddDAPR analogues were examined for their sus­ceptibility to deamination by beef intestine adenosine de­ aminase (ADA).

[2] = substrate: Nc1nc(N)c2ncn([C@H]3C[C@H](F)[C@@H](CO)O3)c2n1; assay: as above; format: biochemical; conditions: other: beef intestine adenosine deaminase
Text: as §1

B1: beef intestine adenosine deaminase (ADA) (Bos taurus) (protein)
chain: MAQTPAFNKPKVELHVHLDGAIKPETILYYGRKRGIALPADTPEELQNIIGMDKPLSLPEFLAKFDYYMPAIAGCREAVKRIAYEFVEMKAKDGVVYVEVRYSPHLLANSKVEPIPWNQAEGDLTPDEVVSLVNQGLQEGERDFGVKVRSILCCMRHQPSWSSEVVELCKKYREQTVVAIDLAGDETIEGSSLFPGHVKAYAEAVKSGVHRTVHAGEVGSANVVKEAVDTLKTERLGHGYHTLEDATLYNRLRQENMHFEVCPWSSYLTGAWKPDTEHPVVRFKNDQVNYSLNTDDPLIFKSTLDTDYQMTKNEMGFTEEEFKRLNINAAKSSFLPEDEKKELLDLLYKAYGMPSPASAEQCL
notes: Kinetic properties of beef intestine adenosine deaminase for 2,6-diaminopurine 2′,3′-dideoxynucleoside analogues; purchased Boehringer Mannheim, Mannheim, West Germany; host or cells: beef intestine (tissue-derived enzyme)
Question: For B1, which Km [1] is on record?
Answer: The Km was 74 µM.

Question: What about the Km [2] of the same protein?
Answer: Its Km is 148 µM.

Question: What about the Vmax [2] of the same protein?
Answer: Its Vmax is 31 µmole/mg protein/min.
